From patent US7807783 (REGENTS OF THE UNIVERSITY OF MICHIGAN, dated 2010)

B3: GAL4 activation domain-FADD fusion protein (GAL4ad-FADD) (other, not shown: large carriers)
chain: MDPFLVLLHSVSSSLSSSELTELKFLCLGRVGKRKLERVQSGLDLFSMLLEQNDLEPGHTELLRELLASLRRHDLLRRVDDFEAGAAAGAAPGEEDLCAAFNVICDNVGKDWRRLARQLKVSDTKIDSIEDRYPRNLTERVRESLRIWKNTEKENATVAHLVGALRSCQMNLVADLVQEVQQARDLQNRSGAMSPMSWNSDASTSEAS
B7: GAL4 DNA binding domain fusion of the cytoplasmic domain of CD28 (receptor, UniProt P04386 1-147, looked up)
chain: MKLLSSIEQACDICRLKKLKCSKEKPKCAKCLKNNWECRYSPKTKRSPLTRAHLTEVESRLERLEQLFLLIFPREDLDMILKMDSLQDIKALLTGLFVQDNVNKDAVTDRLASVETDMPLTLRQHRISATSSSEESSNKGQRQLTVSRSKRSRLLHSDYMNMTPRRPGPTRKHYQPYAPPRDFAAYRS
notes: also called CD28 (yeast bait)

Experiments:
[1] = target: T1, GAL4 DNA binding domain fusion of full-length B94 (UniProt P04386 1-147; Q03169 1-654); test: yeast two-hybrid
T1 construct: also called B94 (yeast bait)
Text: (§1) The following yeast two-hybrid system was used and constructed as follows. The cytoplasmic domains of Fas, Fas-FD8, TNRF-1, Δ-TNFR-1, CD40, and CD28 were obtained by PCR and cloned in-frame, as confirmed by sequencing, into the GAL4 DNA binding domain (GAL4bd) vector pAS1CYH2. Full-length A20 and B94 were similarly cloned into the bait vector. GAL4bd-Fas was cotransformed with a prey plasmid containing a human B-cell cDNA expression library fused to the GAL4 activation domain (GAL4ad) in the pACT plasmid. A more detailed account of the plasmids used in the procedure for the yeast two-hybrid system can be found in Hu et al. (1994) *J. Biol. Chem.* 269:30069-30072.
(§2) The yeast two-hybrid system was used to screen for proteins that interact with the cytoplasmic domain of Fas. An expression vector was constructed by fusing the GAL4 DNA-binding domain to the cytoplasmic tail of the human Fas antigen (GAL4bd-Fas). This bait plasmid was cotransformed in yeast with a prey plasmid containing a human B-cell cDNA expression library fused to the GAL4-activation domain. Seventeen positive clones were obtained from 2 ×10^6 transformants screened. To determine the specificity of interaction, plasmids containing the activation domain fusion proteins were recovered from the putative positive clones and cotransformed with GAL4bd-Fas and control heterologous baits.

[2] = target: GAL4 DNA-binding domain fused to the cytoplasmic tail of the human Fas antigen (GAL4bd-Fas) (human, UniProt P04386 1-147; P25445 191-335, limits assumed); test: yeast two-hybrid
Text: as §1, §2

[3] = target: T2, GAL4 DNA binding domain fusion of full-length A20 (UniProt P04386 1-147; P21580 1-790); test: yeast two-hybrid
T2 construct: also called A20 (yeast bait)
Text: as §1, §2

[4] = target: B7; test: yeast two-hybrid
Text: as §1, §2

[5] = target: T3, GAL4 DNA binding domain fusion of the cytoplasmic domain of CD40 (UniProt P04386 1-147; P25942 216-277, limits assumed); test: yeast two-hybrid
T3 construct: also called CD40 (yeast bait)
Text: as §1, §2

[6] = target: T4, cytoplasmic domain of Fas (UniProt P25445 191-335, limits assumed); test: not described
T4 construct: domain: cytoplasmic domain
T4 sequence (looked up): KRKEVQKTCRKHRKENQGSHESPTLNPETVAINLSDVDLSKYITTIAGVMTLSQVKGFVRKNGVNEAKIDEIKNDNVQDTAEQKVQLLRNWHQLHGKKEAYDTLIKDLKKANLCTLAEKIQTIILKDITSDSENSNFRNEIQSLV

[7] = target: T1, GAL4 DNA binding domain fusion of …; test: yeast two-hybrid, β-galactosidase filter assay
Text: as §1, §2

[8] = target: T2, GAL4 DNA binding domain fusion of …; test: yeast two-hybrid, β-galactosidase filter assay
Text: as §1, §2

[9] = target: T3, GAL4 DNA binding domain fusion of the …; test: yeast two-hybrid, β-galactosidase filter assay
Text: as §1, §2

GST [10] = target: T5, GST (UniProt P08515 1-218 = GST); test: GST pull-down from lysates of transfected 293T cells
T5 construct: Control protein on glutathione beads
Method: (§3) Detergent lysates were prepared and incubated with various GST fusion proteins immobilized on glutathione-Sepharose beads. The samples were analyzed by SDS-PAGE and autoradiography (upper panel). The respective GST fusion proteins are shown as in FIG. 4B (middle panel).

[11] = target: T6, GST-Fas (GST fusion protein containing the cytoplasmic domain of Fas) (UniProt P25445 191-335); test: as above
T6 construct: domain: cytoplasmic domain; Made in E. coli BL21(DE3)pLysS and immobilized on glutathione beads; not shown: glutathione S-transferase of vector pGSTag
T6 sequence (looked up): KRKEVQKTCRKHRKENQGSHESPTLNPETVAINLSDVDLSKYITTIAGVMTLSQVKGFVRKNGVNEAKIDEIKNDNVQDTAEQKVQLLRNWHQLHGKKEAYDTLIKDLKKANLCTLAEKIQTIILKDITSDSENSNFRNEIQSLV
Method: as §3

[12] = target: B3; test: yeast two-hybrid, β-galactosidase filter assay
Text: as §1, §2

GST [13] = target: T5, GST; test: GST pull-down of 35S-labeled in vitro translated FADD, SDS-PAGE and autoradiography

T5 sequence (P08515 whole entry): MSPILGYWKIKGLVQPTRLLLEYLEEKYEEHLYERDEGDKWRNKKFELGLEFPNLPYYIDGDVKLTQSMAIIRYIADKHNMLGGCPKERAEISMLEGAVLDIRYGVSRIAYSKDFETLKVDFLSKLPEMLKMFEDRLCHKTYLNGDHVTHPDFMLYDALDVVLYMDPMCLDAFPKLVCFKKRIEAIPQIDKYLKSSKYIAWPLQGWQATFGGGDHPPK

B1: clone 8 (GAL4 activation domain fusion isolated in the yeast two-hybrid screen) (other, not shown: large carriers)
chain: SGLDLFSMLLEQNDLEPGHTELLRELLASLRRHDLLRRVDDFEAGAAAGAAPGEEDLCAAFNVICDNVGKDWRRLARQLKVSDTKIDSIEDRYPRNLTERVRESLRIWKNTEKENATVAHLVGALRSCQMNLVADLVQEVQQARDLQNRSGAMSPMSWNSDASTSEAS
- binding result [1]: no binding
- binding result [2]: binds
- binding result [3]: no binding
- binding result [4]: no binding
- binding result [5]: no binding

B2: N-FADD (other)
chain: DTYRYIMDPFLVLLHSVSSSLSSSELTELKFLCLGRVGKRKLERVQSGLDLFSMLLEQNDLEPGHTELLRELLASLRRHDLLRRVDDFEAGAAAGAAPGEEDLCAAFNVICDNVGKDWRRLAR
notes: the AU1-tagged form is the one made for the cell death assays; also called AU1-N-FADD
- binding result [6]: no binding

Binder: B3
- binding result [7]: no binding
- binding result [8]: no binding
- binding result [9]: no binding

B4: clone 15 (GAL4 activation domain fusion isolated in the yeast two-hybrid screen) (other, not shown: large carriers)
chain: KFLCLGRVGKRKLERVQSGLDLFSMLLEQNDLEPGHTELLRELLASLRRHDLLRRVDDFEAGAAAGAAPGEEDLCAAFNVICDNVGKDWRRLARQLKVSDTKIDSIEDRYPRNLTERVRESLRIWKNTEKENATVAHLVGALRSCQMNLVADLVQEVQQARDLQNRSGAMSPMSWNSDASTSEAS
notes: also called GAL4ad-FADD (clone 15)
- binding result [1]: no binding
- binding result [3]: no binding
- binding result [4]: no binding
- binding result [5]: no binding

B5: AU1-epitope tagged FADD (AU1-FADD) (other)
chain: DTYRYIMDPFLVLLHSVSSSLSSSELTELKFLCLGRVGKRKLERVQSGLDLFSMLLEQNDLEPGHTELLRELLASLRRHDLLRRVDDFEAGAAAGAAPGEEDLCAAFNVICDNVGKDWRRLARQLKVSDTKIDSIEDRYPRNLTERVRESLRIWKNTEKENATVAHLVGALRSCQMNLVADLVQEVQQARDLQNRSGAMSPMSWNSDASTSEAS
modifications: 35S-methionine/cysteine metabolic label
notes: the tag is placed N-terminal by the name only
- binding result (GST [10]): no binding

B6: AU1-FADDmt (other)
chain: DTYRYIMDPFLVLLHSVSSSLSSSELTELKFLCLGRVGKRKLERVQSGLDLFSMLLEQNDLEPGHTELLRELLASLRRHDLLRRVDDFEAGAAAGAAPGEEDLCAAFNVICDNVGKDWRRLARQLKNSDTKIDSIEDRYPRNLTERVRESLRIWKNTEKENATVAHLVGALRSCQMNLVADLVQEVQQARDLQNRSGAMSPMSWNSDASTSEAS
modifications: 35S-methionine/cysteine metabolic label
notes: also called point mutant of FADD
- binding result [11]: no binding
- binding result (GST [10]): no binding

Binder: B7
- binding result [12]: no binding

B8: HA-epitope tagged FADD (HA-FADD) (other)
chain: YPYDVPDYAMDPFLVLLHSVSSSLSSSELTELKFLCLGRVGKRKLERVQSGLDLFSMLLEQNDLEPGHTELLRELLASLRRHDLLRRVDDFEAGAAAGAAPGEEDLCAAFNVICDNVGKDWRRLARQLKVSDTKIDSIEDRYPRNLTERVRESLRIWKNTEKENATVAHLVGALRSCQMNLVADLVQEVQQARDLQNRSGAMSPMSWNSDASTSEAS
modifications: 35S-methionine/cysteine metabolic or in vitro translation label
notes: also called in vitro translated FADD; 35S-labeled FADD
- binding result (GST [13]): no binding
